Laboratory results taken from article PMC10164081.

Experiments:
Gαolf (human) = Gαolf (human) (UniProt P38405)
[1] = molecular target: purified Ric-8B (peptide-binding thermal shift assay) (mouse) (UniProt Q80XE1); assay: differential scanning fluorimetry
Sequence of purified Ric-8B (peptide-binding thermal shift assay) (mouse) (Q80XE1 1-483): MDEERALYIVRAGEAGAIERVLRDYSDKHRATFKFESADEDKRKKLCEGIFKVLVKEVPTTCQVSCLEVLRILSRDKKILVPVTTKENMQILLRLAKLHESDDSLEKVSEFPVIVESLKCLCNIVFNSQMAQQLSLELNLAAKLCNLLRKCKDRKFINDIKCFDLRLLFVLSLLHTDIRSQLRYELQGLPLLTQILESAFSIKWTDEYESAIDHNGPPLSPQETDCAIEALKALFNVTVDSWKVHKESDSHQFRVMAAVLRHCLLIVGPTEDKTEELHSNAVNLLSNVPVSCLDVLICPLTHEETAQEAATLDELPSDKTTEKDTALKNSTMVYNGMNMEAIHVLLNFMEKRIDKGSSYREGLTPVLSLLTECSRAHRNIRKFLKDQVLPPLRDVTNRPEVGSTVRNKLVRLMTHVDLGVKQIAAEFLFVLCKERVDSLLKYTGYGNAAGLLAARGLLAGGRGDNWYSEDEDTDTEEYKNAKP

Sequence of Gαolf (human) (P38405 whole entry): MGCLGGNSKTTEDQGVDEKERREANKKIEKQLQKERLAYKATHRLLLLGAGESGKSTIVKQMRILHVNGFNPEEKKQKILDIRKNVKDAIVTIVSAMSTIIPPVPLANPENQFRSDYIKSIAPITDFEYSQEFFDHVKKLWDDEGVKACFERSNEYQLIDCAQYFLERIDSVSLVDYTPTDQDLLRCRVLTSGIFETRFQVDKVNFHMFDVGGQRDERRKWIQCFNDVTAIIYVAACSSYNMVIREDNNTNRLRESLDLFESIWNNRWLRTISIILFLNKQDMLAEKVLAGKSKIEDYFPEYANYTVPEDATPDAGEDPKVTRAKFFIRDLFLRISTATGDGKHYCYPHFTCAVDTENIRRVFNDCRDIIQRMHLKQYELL

| folding of the Gαolf-RLuc sensor (luminescence) in RIC-8B knockout HEK293T cells (Gαolf (human)) | maximal thermal shift (ΔTm) [1] | Substance |
| --- | --- | --- |
| 10 % decrease |  | Ric-8B with its ARM7 loop replaced by that of Ric-8A |
|  | 3.3 °C | Gαs C-term amidated peptide |
